Data as given in patent US20150299255A1.

Target: lectin SNA1 from Sambucus nigra (Sambucus nigra), Q41358
Assay: solid-phase assay, peptide titrated into wells containing bound lectin (FIG. 7)

Sequence of lectin SNA1 from Sambucus nigra (Sambucus nigra), Q41358 (Q41358 29-289 limits assumed, chain 1 of 2): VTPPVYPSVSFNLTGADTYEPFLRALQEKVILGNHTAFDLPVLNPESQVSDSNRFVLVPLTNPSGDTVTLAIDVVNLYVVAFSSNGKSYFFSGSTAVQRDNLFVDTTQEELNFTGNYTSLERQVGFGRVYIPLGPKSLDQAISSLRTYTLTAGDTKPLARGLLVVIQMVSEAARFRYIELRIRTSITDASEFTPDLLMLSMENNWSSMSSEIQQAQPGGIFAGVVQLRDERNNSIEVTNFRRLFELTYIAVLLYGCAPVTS
Sequence of lectin SNA1 from Sambucus nigra (Sambucus nigra), Q41358 (Q41358 309-570 limits assumed, chain 2 of 2): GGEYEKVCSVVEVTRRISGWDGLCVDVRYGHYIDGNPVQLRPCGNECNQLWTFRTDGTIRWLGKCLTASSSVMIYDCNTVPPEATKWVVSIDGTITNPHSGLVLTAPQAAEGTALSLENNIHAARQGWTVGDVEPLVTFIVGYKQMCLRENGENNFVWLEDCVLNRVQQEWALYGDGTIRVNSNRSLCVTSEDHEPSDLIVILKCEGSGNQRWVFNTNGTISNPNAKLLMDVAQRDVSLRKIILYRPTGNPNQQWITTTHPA

B1: biotinylated quadravalent SVH1C (peptide)
peptide: NPSHPLSGGGGS
chain: KKKK
modifications: not checked
- amount of peptide at half-maximal binding (pmoles peptide per well): 25
